# T1: SHANK1, Q9Y566
# T1 sequence (Q9Y566 658-767, limits assumed, looked up): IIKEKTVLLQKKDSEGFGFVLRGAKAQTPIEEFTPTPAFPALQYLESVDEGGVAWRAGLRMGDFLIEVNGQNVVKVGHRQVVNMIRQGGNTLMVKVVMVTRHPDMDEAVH
# T2: GRIP1_2, Q9Y3R0
# T2 sequence (Q9Y3R0 145-248, limits assumed, looked up): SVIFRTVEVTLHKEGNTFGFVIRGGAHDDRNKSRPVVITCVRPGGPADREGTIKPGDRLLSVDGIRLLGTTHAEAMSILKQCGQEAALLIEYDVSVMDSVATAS
# T3: PDZRN3_1, Q9UPQ7
# T3 sequence (Q9UPQ7 244-349, limits assumed, looked up): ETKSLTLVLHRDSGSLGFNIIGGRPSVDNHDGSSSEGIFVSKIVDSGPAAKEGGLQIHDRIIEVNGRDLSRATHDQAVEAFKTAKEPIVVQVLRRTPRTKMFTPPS
# T4: MPP2, Q14168
# T4 sequence (Q14168 180-250, limits assumed, looked up): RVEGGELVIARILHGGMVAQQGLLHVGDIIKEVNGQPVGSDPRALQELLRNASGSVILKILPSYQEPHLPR
# T5: ARHGAP21, Q5T5U3
# T5 sequence (Q5T5U3 45-169, limits assumed, looked up): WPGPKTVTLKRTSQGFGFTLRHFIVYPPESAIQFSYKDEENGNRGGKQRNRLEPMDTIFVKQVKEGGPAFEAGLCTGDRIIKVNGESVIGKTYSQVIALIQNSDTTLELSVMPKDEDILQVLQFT
# T6: PARD3B_1, Q8TEW8
# T6 sequence (Q8TEW8 196-299, limits assumed, looked up): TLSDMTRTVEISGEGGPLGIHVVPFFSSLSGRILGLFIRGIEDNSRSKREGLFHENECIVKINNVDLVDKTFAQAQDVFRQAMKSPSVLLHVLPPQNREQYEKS
# T7: HTRA4, P83105
# T7 sequence (P83105 378-476, limits assumed, looked up): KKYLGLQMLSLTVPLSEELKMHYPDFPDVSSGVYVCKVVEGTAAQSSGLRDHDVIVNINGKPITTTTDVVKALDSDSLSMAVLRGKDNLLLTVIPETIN
# T8: DFNB31_2, Q9P202
# T8 sequence (Q9P202 274-371, limits assumed, looked up): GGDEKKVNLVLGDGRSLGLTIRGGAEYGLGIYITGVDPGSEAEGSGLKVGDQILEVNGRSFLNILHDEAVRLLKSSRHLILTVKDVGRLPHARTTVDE
# T9: SNTB1, Q13884
# T9 sequence (Q13884 107-205, limits assumed, looked up): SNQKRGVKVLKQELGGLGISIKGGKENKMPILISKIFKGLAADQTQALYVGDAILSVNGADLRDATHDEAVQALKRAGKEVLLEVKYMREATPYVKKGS
# T10: TX1BP3, O14907
# T10 sequence (O14907 10-122, limits assumed, looked up): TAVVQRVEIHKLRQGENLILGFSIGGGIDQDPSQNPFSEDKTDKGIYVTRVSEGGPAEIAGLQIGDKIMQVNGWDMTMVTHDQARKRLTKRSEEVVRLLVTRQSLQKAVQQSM
# Assays:
# Assay in all cases: holdup assay
# Parameters in all cases: key: below the threshold = too weak to quantify, mostly under pKd 3.1 to 4
# Conditions in all cases: plain residues with an end cap or a label only (N-terminal biotin on a linker: ado-ado)
# Inadl_3, Q8NI35 = target: Inadl_3, Q8NI35
# SHANK1, Q9Y566 = target: T1, SHANK1, Q9Y566
# DLG2_2, Q15700 = target: DLG2_2, Q15700
# LAP2, Q96RT1 = target: LAP2, Q96RT1
# GRIP1_2, Q9Y3R0 = target: T2, GRIP1_2, Q9Y3R0
# MAGI3_2, Q5TCQ9 = target: MAGI3_2, Q5TCQ9
# HTRA2, O43464 = target: HTRA2, O43464
# GRASP, Q7Z6J2 = target: GRASP, Q7Z6J2
# PDZRN3_1, Q9UPQ7 = target: T3, PDZRN3_1, Q9UPQ7
# Inadl_4, Q8NI35 = target: Inadl_4, Q8NI35
# MPP2, Q14168 = target: T4, MPP2, Q14168
# PARD3_3, Q8TEW0 = target: PARD3_3, Q8TEW0
# ARHGAP21, Q5T5U3 = target: T5, ARHGAP21, Q5T5U3
# MAGI1_1, Q96QZ7 = target: MAGI1_1, Q96QZ7
# GOPC, Q9HD26 = target: GOPC, Q9HD26
# PARD3B_1, Q8TEW8 = target: T6, PARD3B_1, Q8TEW8
# DLG5_1, Q8TDM6 = target: DLG5_1, Q8TDM6
# HTRA4, P83105 = target: T7, HTRA4, P83105
# IL16_4, Q14005 = target: IL16_4, Q14005
# NHERF2_2, Q15599 = target: NHERF2_2, Q15599
# FRMPD2_2, Q68DX3 = target: FRMPD2_2, Q68DX3
# DFNB31_2, Q9P202 = target: T8, DFNB31_2, Q9P202
# GRIP2_3, Q9C0E4 = target: GRIP2_3, Q9C0E4
# MAGI2_5, Q86UL8 = target: MAGI2_5, Q86UL8
# SNTB1, Q13884 = target: T9, SNTB1, Q13884
# TX1BP3, O14907 = target: T10, TX1BP3, O14907
# Sequence of GRASP, Q7Z6J2 (Q7Z6J2 96-193): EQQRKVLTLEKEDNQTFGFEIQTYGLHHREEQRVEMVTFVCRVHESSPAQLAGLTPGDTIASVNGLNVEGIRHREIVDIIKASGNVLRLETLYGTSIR
# Sequence of MAGI3_2, Q5TCQ9 (Q5TCQ9 398-503): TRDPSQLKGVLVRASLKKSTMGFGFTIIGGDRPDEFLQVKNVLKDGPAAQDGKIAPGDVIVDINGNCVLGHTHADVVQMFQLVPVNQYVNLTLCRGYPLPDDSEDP
# Sequence of PARD3_3, Q8TEW0 (Q8TEW0 582-685): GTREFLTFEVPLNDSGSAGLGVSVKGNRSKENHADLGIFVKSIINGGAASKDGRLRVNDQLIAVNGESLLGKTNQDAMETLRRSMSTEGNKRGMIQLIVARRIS
# Sequence of GRIP2_3, Q9C0E4 (Q9C0E4 238-339): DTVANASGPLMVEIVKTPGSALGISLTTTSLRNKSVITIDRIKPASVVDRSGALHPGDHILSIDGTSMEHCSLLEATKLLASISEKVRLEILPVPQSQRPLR
# Sequence of FRMPD2_2, Q68DX3 (Q68DX3 944-1038): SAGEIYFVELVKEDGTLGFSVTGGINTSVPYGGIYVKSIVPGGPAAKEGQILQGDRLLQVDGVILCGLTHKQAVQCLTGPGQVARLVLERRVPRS
# Sequence of NHERF2_2, Q15599 (Q15599 142-238): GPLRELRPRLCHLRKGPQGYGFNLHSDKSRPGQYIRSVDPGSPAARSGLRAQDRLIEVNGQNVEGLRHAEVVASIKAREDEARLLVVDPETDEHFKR
# Sequence of MAGI1_1, Q96QZ7 (Q96QZ7 1-106): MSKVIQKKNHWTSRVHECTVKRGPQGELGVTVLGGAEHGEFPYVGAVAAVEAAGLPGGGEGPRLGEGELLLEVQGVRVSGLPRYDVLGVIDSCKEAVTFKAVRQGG
# Sequence of LAP2, Q96RT1 (Q96RT1 other isoform, or with tags, fused parts or gaps): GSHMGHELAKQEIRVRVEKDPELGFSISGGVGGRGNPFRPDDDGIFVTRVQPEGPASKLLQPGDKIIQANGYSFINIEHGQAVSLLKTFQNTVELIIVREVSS
# Sequence of IL16_4, Q14005 (Q14005 1229-1329): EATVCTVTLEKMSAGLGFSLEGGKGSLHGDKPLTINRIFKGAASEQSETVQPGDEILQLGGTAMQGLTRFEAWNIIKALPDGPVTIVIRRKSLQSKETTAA
# Sequence of MAGI2_5, Q86UL8 (Q86UL8 915-1017): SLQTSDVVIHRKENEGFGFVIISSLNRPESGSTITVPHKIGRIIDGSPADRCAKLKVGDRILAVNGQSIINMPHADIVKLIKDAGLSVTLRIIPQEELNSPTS
# Sequence of Inadl_3, Q8NI35 (Q8NI35 359-469): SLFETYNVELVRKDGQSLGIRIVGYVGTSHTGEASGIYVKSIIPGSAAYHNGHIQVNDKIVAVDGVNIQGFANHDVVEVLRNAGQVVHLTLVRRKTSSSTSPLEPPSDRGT
# Sequence of DLG5_1, Q8TDM6 (Q8TDM6 617-713): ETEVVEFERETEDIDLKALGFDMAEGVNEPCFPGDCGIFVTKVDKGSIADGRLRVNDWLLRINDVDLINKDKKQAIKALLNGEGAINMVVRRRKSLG
# Sequence of HTRA2, O43464 (O43464 355-458): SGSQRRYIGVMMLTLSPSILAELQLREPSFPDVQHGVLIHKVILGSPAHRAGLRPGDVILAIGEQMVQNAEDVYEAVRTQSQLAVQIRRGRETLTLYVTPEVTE
# Sequence of DLG2_2, Q15700 (Q15700 189-283): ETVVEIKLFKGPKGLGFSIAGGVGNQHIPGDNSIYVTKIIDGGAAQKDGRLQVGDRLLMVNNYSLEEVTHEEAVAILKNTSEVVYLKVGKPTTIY
# Sequence of Inadl_4, Q8NI35 (Q8NI35 547-651): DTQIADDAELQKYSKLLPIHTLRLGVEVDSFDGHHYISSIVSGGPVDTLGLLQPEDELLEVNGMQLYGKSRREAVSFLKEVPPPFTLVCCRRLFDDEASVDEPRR
Binder,"pKd (Inadl_3, Q8NI35)","pKd (SHANK1, Q9Y566)","pKd (DLG2_2, Q15700)","pKd (LAP2, Q96RT1)","pKd (GRIP1_2, Q9Y3R0)","pKd (MAGI3_2, Q5TCQ9)","pKd (HTRA2, O43464)","pKd (GRASP, Q7Z6J2)","pKd (PDZRN3_1, Q9UPQ7)","pKd (Inadl_4, Q8NI35)","pKd (MPP2, Q14168)","pKd (PARD3_3, Q8TEW0)","pKd (ARHGAP21, Q5T5U3)","pKd (MAGI1_1, Q96QZ7)","pKd (GOPC, Q9HD26)","pKd (PARD3B_1, Q8TEW8)","pKd (DLG5_1, Q8TDM6)","pKd (HTRA4, P83105)","pKd (IL16_4, Q14005)","pKd (NHERF2_2, Q15599)",other results
"PYPTADHMLA [JUP, P14923]",below the threshold,below the threshold,below the threshold,below the threshold,below the threshold,3.73,below the threshold,below the threshold,below the threshold,below the threshold,below the threshold,below the threshold,below the threshold,below the threshold,below the threshold,below the threshold,below the threshold,below the threshold,below the threshold,below the threshold,"pKd (FRMPD2_2, Q68DX3): below the threshold; pKd (DFNB31_2, Q9P202): below the threshold; pKd (GRIP2_3, Q9C0E4): below the threshold; pKd (MAGI2_5, Q86UL8): below the threshold; pKd (SNTB1, Q13884): below the threshold; pKd (TX1BP3, O14907): 4.01"
"TGLWKHETTV [ADGRA3, Q8IWK6]",3.86,below the threshold,5.4,4.32,below the threshold,5.48,below the threshold,3.55,4.25,below the threshold,below the threshold,3.54,3.92,below the threshold,3.92,below the threshold,below the threshold,4.15,below the threshold,below the threshold,"pKd (FRMPD2_2, Q68DX3): 3.76; pKd (DFNB31_2, Q9P202): below the threshold; pKd (GRIP2_3, Q9C0E4): below the threshold; pKd (MAGI2_5, Q86UL8): 4.41; pKd (SNTB1, Q13884): 4.84; pKd (TX1BP3, O14907): 5.08"
"KPGKGSETVV [FZD4, Q9ULV1]",3.55,below the threshold,4.87,below the threshold,below the threshold,5.64,below the threshold,below the threshold,3.71,below the threshold,below the threshold,below the threshold,3.93,below the threshold,3.73,below the threshold,3.54,below the threshold,below the threshold,below the threshold,"pKd (FRMPD2_2, Q68DX3): below the threshold; pKd (DFNB31_2, Q9P202): below the threshold; pKd (GRIP2_3, Q9C0E4): below the threshold; pKd (MAGI2_5, Q86UL8): 3.55; pKd (SNTB1, Q13884): 4.78; pKd (TX1BP3, O14907): below the threshold"
"AAVENKVTDL [PLXNB1, O43157]",below the threshold,below the threshold,3.95,3.54,below the threshold,below the threshold,below the threshold,3.93,below the threshold,below the threshold,below the threshold,below the threshold,4.07,below the threshold,3.65,3.54,below the threshold,below the threshold,below the threshold,4.07,"pKd (FRMPD2_2, Q68DX3): below the threshold; pKd (DFNB31_2, Q9P202): below the threshold; pKd (GRIP2_3, Q9C0E4): below the threshold; pKd (MAGI2_5, Q86UL8): below the threshold; pKd (SNTB1, Q13884): 4.63; pKd (TX1BP3, O14907): 4.77"

# The next lines start with results.
"pKd (Inadl_3, Q8NI35)","pKd (SHANK1, Q9Y566)","pKd (DLG2_2, Q15700)","pKd (LAP2, Q96RT1)","pKd (GRIP1_2, Q9Y3R0)","pKd (MAGI3_2, Q5TCQ9)","pKd (HTRA2, O43464)","pKd (GRASP, Q7Z6J2)","pKd (PDZRN3_1, Q9UPQ7)","pKd (Inadl_4, Q8NI35)","pKd (MPP2, Q14168)","pKd (PARD3_3, Q8TEW0)","pKd (ARHGAP21, Q5T5U3)","pKd (MAGI1_1, Q96QZ7)","pKd (GOPC, Q9HD26)","pKd (PARD3B_1, Q8TEW8)","pKd (DLG5_1, Q8TDM6)","pKd (HTRA4, P83105)","pKd (IL16_4, Q14005)","pKd (NHERF2_2, Q15599)",Binder,other results
below the threshold,below the threshold,below the threshold,below the threshold,below the threshold,below the threshold,below the threshold,4.16,below the threshold,below the threshold,below the threshold,below the threshold,below the threshold,below the threshold,below the threshold,3.91,below the threshold,below the threshold,below the threshold,4.18,"EKCGKEFSEF [PRKACA, P17612]","pKd (FRMPD2_2, Q68DX3): below the threshold; pKd (DFNB31_2, Q9P202): below the threshold; pKd (GRIP2_3, Q9C0E4): below the threshold; pKd (MAGI2_5, Q86UL8): 3.8; pKd (SNTB1, Q13884): below the threshold; pKd (TX1BP3, O14907): below the threshold"
below the threshold,3.53,below the threshold,below the threshold,below the threshold,below the threshold,below the threshold,below the threshold,below the threshold,below the threshold,below the threshold,below the threshold,below the threshold,below the threshold,below the threshold,4.39,below the threshold,below the threshold,below the threshold,below the threshold,"QKAPTKEFYA [SDC2, P34741]","pKd (FRMPD2_2, Q68DX3): 3.61; pKd (DFNB31_2, Q9P202): below the threshold; pKd (GRIP2_3, Q9C0E4): below the threshold; pKd (MAGI2_5, Q86UL8): below the threshold; pKd (SNTB1, Q13884): below the threshold; pKd (TX1BP3, O14907): below the threshold"

# Source: article PMC9482650, “Quantitative fragmentomics allow affinity mapping of interactomes” (Nature Communications, 2022)
